{"source": "paper PMC12301328", "about": "“Identification of a preferred DNA binding sequence and novel regulon member for CadR in Pseudomonas aeruginosa PAO1”", "molecules": {"B1": {"name": "Control (EMSA) (dsDNA)", "DNA 1": "CCTCTCTATGGGCAGTCGGTGATCTAGGAATTCGTGCAGAGGTGACGTCATAGAATTCGCATCCCTCCAGAAGCTTGGAC", "DNA 2": "GTCCAAGCTTCTGGAGGGATGCGAATTCTATGACGTCACCTCTGCACGAATTCCTAGATCACCGACTGCCCATAGAGAGG"}, "B2": {"name": "ST2_CadR_mt12 (dsDNA)", "DNA 1": "CTAGGAATTCGTGCAGAGGTGAAACCCTGTAGTGACTACAGGGTTCATCCCTCCAGAAGCTTGGAC", "DNA 2": "GTCCAAGCTTCTGGAGGGATGAACCCTGTAGTCACTACAGGGTTTCACCTCTGCACGAATTCCTAG"}, "B3": {"name": "Control (BLI) (dsDNA)", "DNA 1": "CTAGGAATTCGTGCAGAGGTGACGTCATAGAATTCGCATCCCTCCAGAAGCTTGGAC", "DNA 2": "GTCCAAGCTTCTGGAGGGATGCGAATTCTATGACGTCACCTCTGCACGAATTCCTAG"}}, "key": {"[1]": {"molecular_target": "CadR from Pseudomonas aeruginosa PAO1 (PaCadR) (Pseudomonas aeruginosa PAO1)", "experiment": "not stated; purified PaCadR in solution (Supplementary Figure S7); method not given"}, "[2]": {"molecular_target": "CadR from Pseudomonas aeruginosa PAO1 (PaCadR) (Pseudomonas aeruginosa PAO1)", "experiment": "native gel or EMSA; adaptation of a Ferguson plot of the DNA-bound PaCadR species on native PAGE (Supplementary Figure S6); PaCadR bound to its consensus DNA"}, "[3]": {"molecular_target": "T1, PaCadR (Pseudomonas aeruginosa PAO1, UniProt Q9HXV1 1-156)", "T1 sequence": "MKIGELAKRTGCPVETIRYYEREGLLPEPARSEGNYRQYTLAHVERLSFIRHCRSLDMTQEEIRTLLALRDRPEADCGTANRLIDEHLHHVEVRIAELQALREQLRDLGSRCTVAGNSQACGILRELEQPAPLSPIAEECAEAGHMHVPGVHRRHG", "experiment": "EMSA; 20-80 nM PaCadR; EMSA: 1X CutSmart buffer, 1 mM DTT, 3 mM EDTA, 5 nM each DNA, 37 C, 20 min; BLI: 20 mM Tris-Cl pH 7.5, 100 mM NaCl, 0.01% Tween-20, 1 mM DTT, 37 C", "settings": "protein: recombinant; chain copies: 2; label: 5' IRDye-800 on ConL strand; blunt"}, "[4]": {"molecular_target": "T1, PaCadR", "experiment": "EMSA; 50 nM PaCadR; not significantly different from WT; EMSA: 1X CutSmart buffer, 1 mM DTT, 3 mM EDTA, 5 nM each DNA, 37 C, 20 min; BLI: 20 mM Tris-Cl pH 7.5, 100 mM NaCl, 0.01% Tween-20, 1 mM DTT, 37 C", "settings": "protein: recombinant; chain copies: 2; label: 5' IRDye-700 on ST2R strand; blunt"}, "[5]": {"molecular_target": "T1, PaCadR", "experiment": "BLI; no added metal; EMSA: 1X CutSmart buffer, 1 mM DTT, 3 mM EDTA, 5 nM each DNA, 37 C, 20 min; BLI: 20 mM Tris-Cl pH 7.5, 100 mM NaCl, 0.01% Tween-20, 1 mM DTT, 37 C", "settings": "protein: recombinant; chain copies: 2; label: 5' biotin on ST2R strand; blunt"}}, "data": [{"molecule": "CadR from Pseudomonas aeruginosa PAO1 (PaCadR) (from UniProt A0A0H2ZEP1 1-156) (natural protein)", "values": [{"measurement": "stoichiometry N", "setting": "[1]", "value": 2}, {"measurement": "stoichiometry N", "setting": "[2]", "value": 2}]}, {"molecule": "B1", "values": [{"measurement": "binding result", "setting": "[3]", "value": "no binding"}]}, {"molecule": "B2", "values": [{"measurement": "binding result", "setting": "[4]", "value": "binds"}]}, {"molecule": "B3", "values": [{"measurement": "binding result", "setting": "[5]", "value": "no binding"}]}]}
